Test results published in paper PMC12804832.

Target: T1, Msn2 DBD (Saccharomyces cerevisiae, UniProt P33748 643-704)
T1 sequence: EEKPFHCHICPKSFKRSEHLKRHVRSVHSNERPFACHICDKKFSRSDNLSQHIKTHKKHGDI
Assay: EMSA

B1: 51 bp DNA without motif (dsDNA)
DNA 1: CCTGCCACCTACACATACTTCCTACACAACCTGAGTCGTATTAATTTCGCG
DNA 2: CGCGAAATTATACGACTCAAGTTGTGTAGGAAGTATGTGTAGGTGGCGAGG
Q: Does B1 bind?
A: no binding
